Entries after “also recorded” stand apart in the source; their conditions may differ.
Experiments:
Uch-L3 = molecular target: T1, Uch-L3 (Homo sapiens, UniProt P15374); conditions: cited from earlier work
T1 sequence (P15374 1-230): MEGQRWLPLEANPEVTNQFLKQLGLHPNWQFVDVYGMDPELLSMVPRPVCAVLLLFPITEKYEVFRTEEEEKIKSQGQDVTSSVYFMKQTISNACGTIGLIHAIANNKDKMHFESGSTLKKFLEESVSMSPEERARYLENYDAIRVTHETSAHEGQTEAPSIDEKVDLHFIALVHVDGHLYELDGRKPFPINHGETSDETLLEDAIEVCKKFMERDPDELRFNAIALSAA

Aβ42 = experiment: Quantification of amyloid peptides by ELISA in APP/PS1 mice; assay type: in vivo, mouse; conditions: for cortex Aβ levels / hippocampal Aβ levels: 0.02-0.04 g/kg i.p.; for Aβ levels in APP/PS1 mice (words): single injection 0.02-0.04 g/kg i.p.
PKA [1] = experiment: PKA kinase activity in hippocampal cultures; assay type: cell-based, rat; conditions: fusion protein 100 nM 24 hrs; for basal PKA activity in Aβ-treated cultures: Aβ 24 hrs
Protocol: PKA Kinase Activity Measurement. Primary hippocampal neurons from E18 rats were dissociated and cultured as described (Vitolo et al, Proc Natl Acad Sci USA 99:13217-13221 (2002)). […]
Hippocampal slices were lysed with RIPA lysis buffer and homogenized by Dounce homogenizer on ice. 5 DIV primary cultures were treated for 24 hrs and cells were lysed with RIPA lysis buffer.
Levels of intracellular PKA kinase activity were measured by PKA Kinase Activity Assay Kit (Stressxpress) according to manufacturer's instructions.
Preparation of Cell Cultures. Hippocampal cell cultures were prepared as previously described (Vitolo et al., 2002). In cell culture experiments fetuses at embryonic day 18 from timed pregnant Sprague-Dawley rats (Taconic Farms) were used. Fetuses were sacrificed and the hippocampi removed. Neurons were then dissociated, plated on 6 well-plates coated with poly-L-lysine and maintained in a defined serum-free medium containing minimum essential medium supplemented with N-2, glucose, albumin, pyruvic acid, antibiotics and antimycotics. […] 5 DIV cells were used for the experiments.

phospho-CREB = experiment: Phospho-CREB immunofluorescence in hippocampal slices; assay type: cell-based, mouse
PKA RIIα = PKA RIIα levels in hippocampal slices (Western blot); assay type: cell-based, mouse; conditions: for Aβ-induced increase in PKA RIIα levels (words): fusion protein 20 nM 1 hr, Aβ 200 nM 20 min
Protocol: (§1) Western Blotting: Protein levels were assessed using standard procedures. Protein extraction was performed using buffer with and without detergent. For the extraction of protein using detergent, hippocampal tissues and cultured hippocampal neurons (5 DIV) were homogenized in RIPA buffer (50 mM Tris-HCl pH 7.4, 1% Triton X-100, 1% sodium deoxycholate, 0.1% SDS, 150 mM sodium chloride, 10 mM sodium fluoride, 30 mM sodium pyrophosphate, 50 mM sodium orthovanadate) containing 1× complete protease inhibitor (Roche) and 1 mM phenylmethylsulfonyl fluoride (PMSF). For extraction of proteins without detergent, hippocampal extracts were homogenized with disposable dounce homogenizers in buffer A, containing 10 mM HEPES pH 7.3, 300 mM sucrose, protease 1× complete protease inhibitor (Roche) and PMSF. After centrifugation at 10,000×g supernatant proteins were resolved on a 8% or 4-20% gradient Tris-Glycine gel, transferred onto PVDF or nitrocellulose membrane and blocked in 5% skim milk in PBS-Tween 0.1% (PBS-T). Membranes were probed with primary antibodies, and after washing with PBS-T incubated with an appropriate HRP-conjugated secondary antibody. The following antibodies were used: mouse monoclonal anti-ubiquitin (Chemicon), rabbit polyclonal anti-pCREB (Upstate Biotech.), rabbit polyclonal anti-PKA-RIIα (Santa Cruz Biotech. Inc), mouse monoclonal anti-Uch-L1 (Novocastra), monoclonal mouse anti-HA (Santa Cruz Biotech. Inc), and anti-PKA IIα. Detection was performed using HRP-conjugated secondary antibodies (Pierce, Rockford, Ill.). To control loading and transfer, protein immunoreactivities were normalized against total extracellular signal-regulated protein kinases (ERK1/2) levels with a rabbit analyzed using a rabbit polyclonal anti-ERK1/2 antibody (Cell Signaling Technology, Inc). NIH IMAGE was used to analyze the scanned blots and quantify the intensity of the protein signals.

hippocampal slices = assay type: cell-based, mouse
Protocol: as §1, with “Membranes were probed with primary antibodies, and after washing with PBS-T incubated with an appropriate HRP-conjugated secondary antibody. The following antibodies were used: mouse monoclonal anti-ubiquitin (Chemicon), rabbit polyclonal anti-pCREB (Upstate Biotech.), rabbit polyclonal anti-PKA-RIIα (Santa Cruz Biotech. Inc), mouse monoclonal anti-Uch-L1 (Novocastra), monoclonal mouse anti-HA (Santa Cruz Biotech. Inc), and anti-PKA IIα. Detection was performed using HRP-conjugated secondary antibodies (Pierce, Rockford, Ill.).” left out

cAMP = experiment: Intracellular cAMP enzyme immunoassay; assay type: cell-based, rat; conditions: fusion protein 100 nM 24 hrs, Aβ
Protocol: Intracellular cAMP Enzyme Immunoassay. Hippocampal neurons from E18 rats were dissociated and plated on poly-L-lysine coated 6-well plates in minimum essential medium supplemented with N-2, glucose, albumin, pyruvic acid, antibiotics and antimycotics. […] After 24 hours, cell lysates were obtained and intracellular cAMP levels were measured using cAMP Biotrak Enzymeimmunoassay (EIA) System (Amersham) in accordance with manufacturer's instructions.

PKA [2] = experiment: PKA kinase activity in hippocampal slices; assay type: cell-based, mouse
monoubiquitin = experiment: Monoubiquitin levels (quantitative Western blot); assay type: cell-based, mouse
Protocol: as §1

[3] = 3-5 month old APP/PS1 mice, sacrificed 3 weeks after injection
[4] = 4 month old APP/PS1 mice, sacrificed 4 hrs after injection
[5] = 4 hrs after injection, 4 month old APP/PS1 mice
[6] = listed as Uch-L1 fusion protein
[7] = listed as TAT-Uch-L1 fusion protein

CC(=O)O/N=C1\C(=O)N(Cc2cc(Cl)ccc2Cl)c2ccc(Cl)cc21 [LDN-57444, reference compound]
IC50 (Uch-L3): 25 µM

B1: TAT-HA-Uch-L1: fusion protein: 11-amino acid transduction domain of HIV-transactivator protein (TAT) fused with an HA tag and human Uch-L1 (protein)
chain: MQLKPMEINPEMLNKVLSRLGVAGQWRFVDVLGLEEESLGSVPAPACALLLLFPLTAQHENFRKKQIEELKGQEVSPKVYFMKQTIGNSCGTIGLIHAVANNQDKLGFEDGSVLKQFLSETEKMSPEDRAKCFEKNEAIQAAHDAVAQEGQCRVDDKVNFHFILFNNVDGHLYELDGRMPFPVNHGASSEDTLLKDAAKVCREFTEREQGEVRFSAVALCKAA
modifications: left off: small tags and cut ends
cortex Aβ levels (Aβ42; [3]): 90.28±17.38 pmol/mg protein
hippocampal Aβ levels (Aβ42; [3]): 178.60±18.24 pmol/mg protein
cortex Aβ levels (Aβ42; [4]): 4.17±0.68 pmol/mg protein
hippocampal Aβ levels (Aβ42; [4]): 6.35±0.54 pmol/mg protein
cortical Aβ42 (Aβ42; [5]): about 104%
hippocampal Aβ42 (Aβ42; [5]): about 94 % that of vehicle-treated APP/PS1 mice
cortical Aβ42 (Aβ42; mice tested for fear conditioning over 21 days): about 103%
Aβ levels in APP/PS1 mice (words) (Aβ42): no difference in Aβ42 levels; also recorded: did not change Aβ levels
Aβ levels in APP/PS1 mice (words) (Aβ42; [6]): did not change Aβ levels
glutamate-induced increase in PKA activity in Aβ-treated cultures (PKA [1]; 3 μM Aβ 24 hrs, glutamate 50 μM 15 min): rescued the increase in PKA activity; also recorded: rescued the glutamate-induced increase in kinase activity
basal PKA activity in Aβ-treated cultures (PKA [1]): reversing the Aβ-induced decrease in basal PKA activity; also recorded: re-established; also recorded: increased levels of kinase activity
basal PKA activity in Aβ-treated cultures (PKA [1]; [7]): re-establishes normal levels
tetanus-induced increase in phospho-CREB in Aβ-treated slices (phospho-CREB; fusion protein 20 nM 1 hr, then 200 nM Aβ plus fusion protein 20 min): significant protection against Aβ42 effects on phospho-CREB; also recorded: reversed; also recorded: re-established the tetanus-induced increase in CREB phosphorylation; also recorded: re-established the tetanus-induced increase in phospho-CREB
tetanus-induced increase in phospho-CREB (words) (phospho-CREB; fusion protein alone): did not affect the increase; also recorded: had no effect
phospho-CREB immunofluorescence without theta-burst (phospho-CREB; no tetanus): did not modify immunofluorescence; also recorded: neither Aβ42 alone nor TAT-HA-Uch-L1 alone nor TAT-HA-Uch-L1 paired with Aβ42 induced changes
IIα regulatory subunit levels (PKA RIIα; 20 nM TAT-HA-Uch-L1 1 hr pretreatment plus Aβ42): 121.03±14.10 % of control
Aβ-induced increase in PKA RIIα levels (words) (PKA RIIα): blocked by pretreatment; also recorded: re-established normal levels of regulatory subunit; also recorded: re-established normal levels of RIIα
Aβ-induced increase in PKA RIIα levels (words) (PKA RIIα; [7]): blocks the increase
Aβ-induced increase in PKA RIIα levels (words) (PKA RIIα; [6]): blocked
localisation in soluble/insoluble protein fractions (hippocampal slices): localized to the soluble fraction
cAMP levels in Aβ-treated cultured hippocampal neurons (words) (cAMP): remained low; also recorded: did not affect the decrease in cAMP levels; also recorded: does not rescue the decrease in cAMP levels
cAMP levels in Aβ-treated cultured hippocampal neurons (words) (cAMP; [7]): does not re-establish normal cAMP levels
cAMP levels in Aβ-treated cultured hippocampal neurons (words) (cAMP; [6]): does not rescue the decrease in cAMP levels
PKA activity (PKA [2]; 20 nM TAT-HA-Uch-L1 1 hr, then 200 nM Aβ plus TAT-HA-Uch-L1 20 min): 89.21±3.21%
PKA activity in Aβ-treated slices (PKA [2]; fusion protein 20 nM 1 hr pre-incubation, 200 nM Aβ 20 min): blocked the reduction; also recorded: increased levels of kinase activity
mono-ubiquitin levels (monoubiquitin; 20 nM fusion protein 1 hour, then 200 nM oligomeric Aβ plus fusion protein 20 min): 90.25±17.25 % of control
monoubiquitin levels (monoubiquitin; fusion protein 20 nM 1 hr pre-incubation plus Aβ): normal monoubiquitin levels; also recorded: blocks the decrease of monoubiquitin levels
monoubiquitin levels (monoubiquitin; fusion protein 20 nM 1 hr pre-incubation plus Aβ, listed as TAT-A-Uch-L1 peptide): annulled the decrease
monoubiquitin levels (monoubiquitin; fusion protein 20 nM 1 hr pre-incubation plus Aβ, listed as TAT-Uch-L1 fusion protein): re-establishes normal mono-ubiquitin levels
mono-ubiquitin levels (monoubiquitin; fusion protein alone): 121.03±14.69 % of control
monoubiquitin levels (monoubiquitin; substance alone): slight increase
